Source: publication PMC12612594, “Nuclear Magnetic Resonance‐based fragment screen of the E3 ligase Fem‐1 homolog B” (Protein Science : A Publication of the Protein Society, 2025)

What was measured:
[1] = stability of construct at room temperature; assay type: physicochemical
Excerpt: Two FEM1B constructs (FEM1B‐1 and FEM1B‐2) were designed to remove free cysteines on the exterior of the protein to prevent disulfide bond formation and prevent aggregation. FEM1B‐3 to FEM1B‐11 were designed to modify hydrophobic residues on the protein surface and reduce the predicted pI away from the pH needed for the experiment. To accomplish this, residues such as Leu, Ile, Val, or Arg were mutated to negatively charged residues (Asp or Glu) to shift the pI to be more acidic. Hydrophobic residues on the surface of the protein were chosen for mutation to also reduce solvent‐exposed hydrophobic patches that may be contributing to the aggregation (Figure S1, Supporting Information).

[2] = thermal shift assay of FEM1B constructs; assay type: physicochemical; details: average of three replicates
Experimental: The substrate binding domain of FEM1B (residues 1–356, ~42 kDa molecular weight) was prepared for NMR‐based screening. However, this construct (FEM1B WT) was prone to aggregation and was not suitable for the NMR experiments. […] To reduce the potential for aggregation, we prepared several mutants of FEM1B constructs and evaluated their stability using a thermal shift assay (Table 1).

B1: FEM1B‐11: FEM1B construct, mutations L4E, L18E, A21E, L25S, Y84A, I270N, L281E, R321D (protein, UniProt Q9UK73 1-627, looked up, variant L4E L18E A21E L25S Y84A I270N L281E R321D)
Protein fem-1 homolog B: MEGEAGYVYKAASEGKVETLEALLSNRSESDIRYLLGYVSQQGGQRSTPLIIAARNGHAKVVRLLLEHYRVQTQQTGTVRFDGAVIDGATALWCAAGAGHFEVVKLLVSHGANVNHTTVTNSTPLRAACFDGRLDIVKYLVENNANISIANKYDNTCLMIAAYKGHTDVVRYLLEQRADPNAKAHCGATALHFAAEAGHIDIVKELIKWRAAIVVNGHGMTPLKVAAESCKADVVELLLSHADCDRRSRIEALELLGASFANDRENYDINKTYHYLYLAMEERFQDGDNILEKEVLPPIHAYGNRTECRNPQELESIRQDDDALHMEGLIVRERILGADNIDVSHPIIYRGAVYADNMEFEQCIKLWLHALHLRQKGNRNTHKDLLRFAQVFSQMIHLNETVKAPDIECVLRCSVLEIEQSMNRVKNISDADVHNAMDNYECNLYTFLYLVCISTKTQCSEEDQCKINKQIYNLIHLDPRTREGFTLLHLAVNSNTPVDDFHTNDVCSFPNALVTKLLLDCGAEVNAVDNEGNSALHIIVQYNRPISDFLTLHSIIISLVEAGAHTDMTNKQNKTPLDKSTTGVSEILLKTQMKMSLKCLAARAVRANDINYQDQIPRTLEEFVGFH
stable at room temperature [1]: over 24 h | Tm ± SD [2]: 48.6 ± 1.7 °C
